Assay results from the supplement of paper PMC9112550, “Optimization of the antimicrobial peptide Bac7 by deep mutational scanning” (BMC Biology, 2022).

tested on: Escherichia coli TOP10; assay: shrunken log2 fold change of peptide-encoding DNA abundance (4.5 h post-induction vs induction); higher = less antimicrobial activity (less host growth inhibition); conditions: time post-induction: 4.5 h; library: site-saturation at positions 5, 18, 19, 20
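Further: peptides expressed intracellularly from a pBAD plasmid library in pooled LB shake-flask culture, induced with 0.3% L-arabinose, DNA abundance read by NGS, three biological replicates, DESeq2 with apeglm shrinkage.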

Sequence | shrunken log2 fold change
RRIRSRPPRLPRPRPRPEIIPRP | -0.0448
RRIRLRPPRLPRPRPRPTTEPRP | -0.00894
RRIRDRPPRLPRPRPRPKKIPRP | 0.0726
RRIRNRPPRLPRPRPRPAESPRP | 0.37
RRIRFRPPRLPRPRPRPMVCPRP | -0.0374
RRIRWRPPRLPRPRPRPHNHPRP | -0.707
RRIRGRPPRLPRPRPRPYSQPRP | -0.621
RRIRERPPRLPRPRPRPHGNPRP | -0.0832
RRIRIRPPRLPRPRPRPIWEPRP | -0.0114
RRIRERPPRLPRPRPRPNRMPRP | -1.36
RRIRHRPPRLPRPRPRPSKKPRP | 0.0943
RRIRARPPRLPRPRPRPLEFPRP | 0.231
RRIRVRPPRLPRPRPRPMLYPRP | -0.375
RRIRQRPPRLPRPRPRPNHNPRP | -0.893
RRIRERPPRLPRPRPRPLDIPRP | -0.0284
RRIRTRPPRLPRPRPRPVQGPRP | 0.165
RRIRHRPPRLPRPRPRPSYWPRP | 0.0148
RRIRLRPPRLPRPRPRPDVMPRP | -0.269
RRIRRRPPRLPRPRPRPCACPRP | -0.0784
RRIRDRPPRLPRPRPRPLFMPRP | 0.154
RRIRARPPRLPRPRPRPPEIPRP | 0.301
RRIRKRPPRLPRPRPRPNTHPRP | -0.125
RRIRMRPPRLPRPRPRPAVMPRP | 0.782
RRIRKRPPRLPRPRPRPKYVPRP | 0.0381
RRIRQRPPRLPRPRPRPCQAPRP | -0.187

Sequence | shrunken log2 fold change
RRIRHRPPRLPRPRPRPIEQPRP | -0.0277
RRIRGRPPRLPRPRPRPLRHPRP | 1.34
RRIRWRPPRLPRPRPRPEIYPRP | 0.21
RRIRDRPPRLPRPRPRPMEEPRP | -0.00277
RRIRKRPPRLPRPRPRPLSDPRP | 0.22
RRIRRRPPRLPRPRPRPELLPRP | 0.147
RRIRNRPPRLPRPRPRPKNTPRP | -0.462
RRIRPRPPRLPRPRPRPLGCPRP | 0.376
RRIRPRPPRLPRPRPRPLTFPRP | -0.113
RRIRPRPPRLPRPRPRPQPWPRP | 0.348
RRIRMRPPRLPRPRPRPDSNPRP | 0.754
RRIRMRPPRLPRPRPRPDHDPRP | -0.0765
RRIRHRPPRLPRPRPRPYNEPRP | 0.0187
RRIRNRPPRLPRPRPRPRRWPRP | 0.701
RRIRARPPRLPRPRPRPTNDPRP | 0.297
RRIRTRPPRLPRPRPRPNPPPRP | 0.199
RRIRTRPPRLPRPRPRPCCPPRP | -0.305
RRIRTRPPRLPRPRPRPKYYPRP | -0.54
RRIRSRPPRLPRPRPRPGHFPRP | -0.0564
RRIRLRPPRLPRPRPRPWARPRP | 0.482
RRIRKRPPRLPRPRPRPQLVPRP | 0.225
RRIRVRPPRLPRPRPRPGDKPRP | 0.00318
RRIRTRPPRLPRPRPRPELDPRP | 0.641
RRIRGRPPRLPRPRPRPQIGPRP | 0.345
RRIRERPPRLPRPRPRPILCPRP | -0.0244

Sequence | shrunken log2 fold change
RRIRIRPPRLPRPRPRPEIQPRP | -0.171
RRIRTRPPRLPRPRPRPWQCPRP | 0.00408
RRIRSRPPRLPRPRPRPYWDPRP | -0.321
RRIRSRPPRLPRPRPRPHVVPRP | 0.0681
RRIRYRPPRLPRPRPRPYFVPRP | -0.858
RRIRGRPPRLPRPRPRPWDGPRP | 0.486
RRIRCRPPRLPRPRPRPPPLPRP | 1.15
RRIRQRPPRLPRPRPRPFQEPRP | -0.0113
RRIRGRPPRLPRPRPRPARTPRP | 0.545
RRIRCRPPRLPRPRPRPTENPRP | 0.0623
RRIRHRPPRLPRPRPRPKIPPRP | -0.254
RRIRSRPPRLPRPRPRPNPNPRP | -0.283
RRIRERPPRLPRPRPRPAMFPRP | -1.09
RRIRTRPPRLPRPRPRPAISPRP | 0.09
RRIRMRPPRLPRPRPRPPNTPRP | 0.431
RRIRCRPPRLPRPRPRPCPMPRP | -8.18e-06
RRIRSRPPRLPRPRPRPGNKPRP | -0.194
RRIRRRPPRLPRPRPRPHREPRP | -0.0451
RRIRARPPRLPRPRPRPRWYPRP | -0.0331
RRIRLRPPRLPRPRPRPIWNPRP | 0.0155
RRIRLRPPRLPRPRPRPASVPRP | -0.0571
RRIRPRPPRLPRPRPRPNSIPRP | -0.254
RRIRHRPPRLPRPRPRPEFIPRP | -0.0433
RRIRKRPPRLPRPRPRPQLKPRP | 0.275
RRIRQRPPRLPRPRPRPGPHPRP | 0.0856
